The term Kd denotes the equilibrium constant for the complex coming apart. Lower therefore signals a tighter complex.

One data set has as its target Rat tail collagen type I (rat, UniProt P02454 152-1207; P02466 86-1125). Briefly: ELISA. In general terms: In an ELISA, binding on a coated surface is turned into a signal by an enzyme label.
Data set [1] in a line: cell-surface biotinylation, avidin pulldown, anti-Myc blot. The note with it: glycan lost; control: wild-type DDR1b, no collagen.
Data set [2] in a line: anti-Myc blot of surface, intracellular and lysate fractions. To be noted: glycan lost; control: wild-type DDR1b.
Data set [3] in a line: BS3 cross-linking of lysates, IP, anti-DDR1 blot. To be noted: glycan lost; control: wild-type DDR1b, no collagen.
Data set [4] can be described thus: reversible biotinylation endocytosis assay, COS1. The note with it: glycan lost; control: wild-type DDR1b.

Rat tail collagen type I, sequence (P02454 152-1207, chain 1 of 2): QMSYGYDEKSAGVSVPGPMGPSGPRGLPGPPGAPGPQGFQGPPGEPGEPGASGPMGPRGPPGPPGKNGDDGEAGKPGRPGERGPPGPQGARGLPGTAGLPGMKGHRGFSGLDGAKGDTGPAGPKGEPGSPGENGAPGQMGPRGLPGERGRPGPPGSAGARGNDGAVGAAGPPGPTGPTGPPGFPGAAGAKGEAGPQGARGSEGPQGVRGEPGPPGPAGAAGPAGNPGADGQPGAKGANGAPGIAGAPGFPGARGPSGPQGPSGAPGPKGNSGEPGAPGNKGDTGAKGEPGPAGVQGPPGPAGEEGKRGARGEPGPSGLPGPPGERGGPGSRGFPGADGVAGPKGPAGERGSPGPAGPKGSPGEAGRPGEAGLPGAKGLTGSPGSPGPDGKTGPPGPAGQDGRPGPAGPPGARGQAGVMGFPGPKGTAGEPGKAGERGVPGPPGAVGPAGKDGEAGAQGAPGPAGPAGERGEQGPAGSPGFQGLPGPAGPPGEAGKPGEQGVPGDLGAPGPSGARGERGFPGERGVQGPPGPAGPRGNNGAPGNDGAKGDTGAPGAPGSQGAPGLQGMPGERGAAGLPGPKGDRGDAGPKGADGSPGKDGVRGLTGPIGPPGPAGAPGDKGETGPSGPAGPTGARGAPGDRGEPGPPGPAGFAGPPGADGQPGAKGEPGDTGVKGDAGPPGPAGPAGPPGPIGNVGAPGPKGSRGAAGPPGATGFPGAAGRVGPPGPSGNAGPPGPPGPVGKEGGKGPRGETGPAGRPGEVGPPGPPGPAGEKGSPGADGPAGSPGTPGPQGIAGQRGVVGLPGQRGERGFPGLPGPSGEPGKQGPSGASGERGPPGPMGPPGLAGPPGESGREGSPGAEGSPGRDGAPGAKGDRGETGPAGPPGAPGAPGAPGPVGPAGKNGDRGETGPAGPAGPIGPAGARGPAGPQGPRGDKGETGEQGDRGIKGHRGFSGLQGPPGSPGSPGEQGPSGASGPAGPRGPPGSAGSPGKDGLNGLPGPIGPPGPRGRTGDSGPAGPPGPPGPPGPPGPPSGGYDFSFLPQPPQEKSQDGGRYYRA
Rat tail collagen type I, sequence (P02466 86-1125, chain 2 of 2): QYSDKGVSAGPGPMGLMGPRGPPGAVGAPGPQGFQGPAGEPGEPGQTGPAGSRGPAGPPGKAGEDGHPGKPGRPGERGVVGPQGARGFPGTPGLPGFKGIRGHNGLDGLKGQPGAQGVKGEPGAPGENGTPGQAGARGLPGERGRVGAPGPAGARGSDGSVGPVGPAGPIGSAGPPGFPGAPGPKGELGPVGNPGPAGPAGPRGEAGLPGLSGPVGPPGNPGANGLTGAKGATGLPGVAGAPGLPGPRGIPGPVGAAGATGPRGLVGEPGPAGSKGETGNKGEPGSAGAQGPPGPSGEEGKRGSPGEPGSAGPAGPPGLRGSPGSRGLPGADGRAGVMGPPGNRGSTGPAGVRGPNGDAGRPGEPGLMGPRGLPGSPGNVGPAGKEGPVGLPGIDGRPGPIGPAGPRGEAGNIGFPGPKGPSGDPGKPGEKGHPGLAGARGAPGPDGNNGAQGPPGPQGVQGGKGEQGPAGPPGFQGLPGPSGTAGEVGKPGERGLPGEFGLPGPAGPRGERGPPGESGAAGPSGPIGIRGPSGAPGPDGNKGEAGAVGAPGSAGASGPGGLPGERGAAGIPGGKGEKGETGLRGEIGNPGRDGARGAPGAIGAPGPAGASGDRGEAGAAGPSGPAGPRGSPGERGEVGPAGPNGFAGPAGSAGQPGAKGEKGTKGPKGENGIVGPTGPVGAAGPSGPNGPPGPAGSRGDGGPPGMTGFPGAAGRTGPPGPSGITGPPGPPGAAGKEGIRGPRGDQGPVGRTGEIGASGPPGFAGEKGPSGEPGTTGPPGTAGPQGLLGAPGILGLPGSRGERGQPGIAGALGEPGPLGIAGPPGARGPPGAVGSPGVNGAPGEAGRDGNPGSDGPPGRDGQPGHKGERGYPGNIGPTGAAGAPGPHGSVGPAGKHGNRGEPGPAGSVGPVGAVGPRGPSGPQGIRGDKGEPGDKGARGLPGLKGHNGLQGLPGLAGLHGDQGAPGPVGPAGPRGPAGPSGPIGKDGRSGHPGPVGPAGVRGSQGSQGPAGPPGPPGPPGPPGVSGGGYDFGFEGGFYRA

B1: DDR1b ectodomain (ECD) harboring an IgG2 Fc fragment at the C-terminal end, N211Q (Fc fusion)
chain: DADMKGHFDPAKCRYALGMQDRTIPDSDISASSSWSDSTAARHSRLESSDGDGAWCPAGSVFPKEEEYLQVDLQRLHLVALVGTQGRHAGGLGKEFSRSYRLRYSRDGRRWMGWKDRWGQEVISGNEDPEGVVLKDLGPPMVARLVRFYPRADRVMSVCLRVELYGCLWRDGLLSYTAPVGQTMYLSEAVYLQDSTYDGHTVGGLQYGGLGQLADGVVGLDDFRKSQELRVWPGYDYVGWSNHSFSSGYVEMEFEFDRLRAFQAMQVHCNNMHTLGARLPGGVECRFRRGPAMAWEGEPMRHNLGGNLGDPRARAVSVPLGGRVARFLQCRFLFAGPWLLFSEISFISDVVNNSSPALGGTFPPAPWWPPGPPPTNFSSLELEPRGQQPVAKAEGSPT
Consider B1, for which, in the data set with Rat tail collagen type I, the affinity, expressed as Kd, was 4.75 nM.

B2: DDR1b ectodomain (ECD) harboring an IgG2 Fc fragment at the C-terminal end, wild type (Fc fusion)
chain: DADMKGHFDPAKCRYALGMQDRTIPDSDISASSSWSDSTAARHSRLESSDGDGAWCPAGSVFPKEEEYLQVDLQRLHLVALVGTQGRHAGGLGKEFSRSYRLRYSRDGRRWMGWKDRWGQEVISGNEDPEGVVLKDLGPPMVARLVRFYPRADRVMSVCLRVELYGCLWRDGLLSYTAPVGQTMYLSEAVYLNDSTYDGHTVGGLQYGGLGQLADGVVGLDDFRKSQELRVWPGYDYVGWSNHSFSSGYVEMEFEFDRLRAFQAMQVHCNNMHTLGARLPGGVECRFRRGPAMAWEGEPMRHNLGGNLGDPRARAVSVPLGGRVARFLQCRFLFAGPWLLFSEISFISDVVNNSSPALGGTFPPAPWWPPGPPPTNFSSLELEPRGQQPVAKAEGSPT
Molecule B2 showed a Kd in the data set with Rat tail collagen type I of 3.33 nM.

B3: Discoidin domain receptor 1 (DDR1b): N211Q (protein)
parent chain: MGPEALSSLLLLLLVASGDADMKGHFDPAKCRYALGMQDRTIPDSDISASSSWSDSTAARHSRLESSDGDGAWCPAGSVFPKEEEYLQVDLQRLHLVALVGTQGRHAGGLGKEFSRSYRLRYSRDGRRWMGWKDRWGQEVISGNEDPEGVVLKDLGPPMVARLVRFYPRADRVMSVCLRVELYGCLWRDGLLSYTAPVGQTMYLSEAVYLNDSTYDGHTVGGLQYGGLGQLADGVVGLDDFRKSQELRVWPGYDYVGWSNHSFSSGYVEMEFEFDRLRAFQAMQVHCNNMHTLGARLPGGVECRFRRGPAMAWEGEPMRHNLGGNLGDPRARAVSVPLGGRVARFLQCRFLFAGPWLLFSEISFISDVVNNSSPALGGTFPPAPWWPPGPPPTNFSSLELEPRGQQPVAKAEGSPTAILIGCLVAIILLLLLIIALMLWRLHWRRLLSKAERRVLEEELTVHLSVPGDTILINNRPGPREPPPYQEPRPRGNPPHSAPCVPNGSALLLSNPAYRLLLATYARPPRGPGPPTPAWAKPTNTQAYSGDYMEPEKPGAPLLPPPPQNSVPHYAEADIVTLQGVTGGNTYAVPALPPGAVGDGPPRVDFPRSRLRFKEKLGEGQFGEVHLCEVDSPQDLVSLDFPLNVRKGHPLLVAVKILRPDATKNARNDFLKEVKIMSRLKDPNIIRLLGVCVQDDPLCMITDYMENGDLNQFLSAHQLEDKAAEGAPGDGQAAQGPTISYPMLLHVAAQIASGMRYLATLNFVHRDLATRNCLVGENFTIKIADFGMSRNLYAGDYYRVQGRAVLPIRWMAWECILMGKFTTASDVWAFGVTLWEVLMLCRAQPFGQLTDEQVIENAGEFFRDQGRQVYLSRPPACPQGLYELMLRCWSRESEQRPPFSQLHRFLAEDALNTV
As for B3, the values for the localisation_or_trafficking entry in data set [1] and in data set [4] were “no change” and “decreases”, respectively. In data set [2], the expression_or_secretion result is on record as “no change”. In data set [3], the oligomerisation entry is “increases”.

(Values after publication PMC3979393 (2014).)
